# Test results: PMC7807878, “Development of an engineered peptide antagonist against periostin to overcome doxorubicin resistance in breast cancer” (BMC Cancer, 2021)
# T1: recombinant PN (rPN) (UniProt Q15063 22-836)
# T1 construct: periostin (PN), recombinant, bought; also called periostin; source: bought: BioVendor (RD172045025)
# T1 sequence (looked up): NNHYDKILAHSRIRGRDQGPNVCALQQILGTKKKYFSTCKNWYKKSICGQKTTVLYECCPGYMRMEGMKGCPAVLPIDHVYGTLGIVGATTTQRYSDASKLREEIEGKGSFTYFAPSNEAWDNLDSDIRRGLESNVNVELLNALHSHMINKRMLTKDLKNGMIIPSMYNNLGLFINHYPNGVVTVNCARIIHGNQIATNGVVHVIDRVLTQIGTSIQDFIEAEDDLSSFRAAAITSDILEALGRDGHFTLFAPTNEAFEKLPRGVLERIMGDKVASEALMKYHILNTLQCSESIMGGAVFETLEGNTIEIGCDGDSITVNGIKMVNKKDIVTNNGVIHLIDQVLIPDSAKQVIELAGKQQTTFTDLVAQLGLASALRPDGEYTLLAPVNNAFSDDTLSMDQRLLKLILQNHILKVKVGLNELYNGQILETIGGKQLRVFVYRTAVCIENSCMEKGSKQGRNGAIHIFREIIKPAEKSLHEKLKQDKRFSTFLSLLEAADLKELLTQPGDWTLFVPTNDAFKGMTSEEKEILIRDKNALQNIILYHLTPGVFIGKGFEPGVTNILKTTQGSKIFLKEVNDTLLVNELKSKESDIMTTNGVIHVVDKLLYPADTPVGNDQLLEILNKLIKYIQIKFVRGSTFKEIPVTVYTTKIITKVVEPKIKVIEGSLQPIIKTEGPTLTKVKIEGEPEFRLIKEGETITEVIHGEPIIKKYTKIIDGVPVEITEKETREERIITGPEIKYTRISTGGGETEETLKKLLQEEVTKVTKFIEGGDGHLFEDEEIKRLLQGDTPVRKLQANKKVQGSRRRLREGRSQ
# B1: plain anti-PN peptide (peptide)
# peptide: TFATHGKHWAAP
# notes: The methods mention C-terminal amidation after describing the FITC-labelled form; it is not clear whether the plain peptide is amidated too; also called candidate anti-PN peptide; source: synthetic peptide (ordered from Syn Peptide company, Shanghai)
# Target: T1, recombinant PN (rPN)
# Assay: ITC; MicroCal PEAQ-ITC; 700 nM rPN (or BSA) and 100 nM plain anti-PN peptide in 50 mM Tris, 150 mM NaCl, pH 7.5, in syringe and cell compartments
# Conditions: both partners purified
binder,measurement,value
B1,Kd,1 pM
